Test results: patent US20200140851A1 (Scripps Research, published 2020)

Target: T1, mouse vimentin (VIM from wild-type C57BL/6J mouse bone marrow lysates) (mouse, UniProt P20152 2-466)
T1 construct: Endogenous protein in bone marrow lysate, denatured for SDS/PAGE and Western blot
Experiment: Western blot of bone marrow lysate
Description: To identify the protein recognized by the B1 antibody, antibodies were produced recombinantly in Expi293F cells. Purified B1 antibody (at a concentration of about 5-10 μg/ml) was incubated with human CD34⁺ cells, and immune complexes from cellular lysates were captured on a protein A/G column. Proteins that reacted with the antibody were identified by silver staining of SDS gels and their identity determined by mass spectrometry (MS). Three candidate proteins were identified above the background threshold (FIG. 5A). Vimentin (VIM) was one of the top hits and was confirmed to be B1 target antigen of B1 Ab by Western blotting. […] Also, VIM expression was found in human CD34⁺ cells by immunofluorescence cytochemistry using B1 or commercial VIM antibodies (FIG. 5C). The amino acid sequence identity between mouse and human VIM is greater than 97%.
Western blot: Cells were washed with PBS and then lysed in lysis buffer (50 mM Hlepes, pH 7.2, 150 mM NaCl, 50 mM NaF, 1 mM Na3VO₄, 10% glycerol, 1% Triton X-100). The lysates were then centrifuged at 12,000×g for 15 min at 4° C. The proteins were denatured in Laemmli sample buffer (5 min at 95° C.), separated by SDS/PAGE, and transferred to nitrocellulose membranes using the iBlot blotting system (Invitrogen). […]

T1 sequence (P20152 2-466 limits assumed): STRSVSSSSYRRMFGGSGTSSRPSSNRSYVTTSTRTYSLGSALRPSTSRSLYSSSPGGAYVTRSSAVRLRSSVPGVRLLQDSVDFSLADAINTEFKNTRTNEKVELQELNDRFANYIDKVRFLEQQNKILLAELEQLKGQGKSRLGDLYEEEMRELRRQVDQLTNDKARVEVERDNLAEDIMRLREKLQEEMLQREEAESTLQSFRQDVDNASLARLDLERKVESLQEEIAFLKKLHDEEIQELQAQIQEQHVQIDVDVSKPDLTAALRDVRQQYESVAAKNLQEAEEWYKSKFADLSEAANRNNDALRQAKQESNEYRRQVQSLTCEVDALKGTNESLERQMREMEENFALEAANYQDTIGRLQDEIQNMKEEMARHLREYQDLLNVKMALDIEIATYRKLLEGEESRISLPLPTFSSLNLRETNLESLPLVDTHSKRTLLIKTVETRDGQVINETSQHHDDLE

B1: B1 antibody (Fc fusion)
scFv: MAQVQLLESGGGLVQPGGSLTLACAASGFNFNNYNMNWVRQAPGRGLEWVAFISSAADTVHYADSVEGRFTISRDNAKNSLYLHMNSLRDEDTAVYYCARQLLYWGQGTLVTVSSGGGGGSQAVLTQPSSLSASPGASVSLTCTLRSGINVGAYRIYWYQQKPGSPPQFLLRYKSDSDKQQGSGVPSRFSGSRDASANAGILLISWLRSEDEADYYCAIWHSSAWVFGGGTQLTVLG
notes: also called B1 Ab; B1Ab; not shown: Fc tag of the purified ScFv-Fc fusion protein
binding result: binds
